Laboratory results as given in article PMC4126857.

Experiments:
[1] = target: Drosophila Plk4 cryptic polo box (DmPlk4 CPB), aa 383-601 (Drosophila) (UniProt O97143); assay: MST
[2] = target: ZYG-1 cryptic polo box (CPB), aa 338-564 (C. elegans) (UniProt Q9GT24); assay: MST
Sequence of ZYG-1 cryptic polo box (CPB), aa 338-564 (C. elegans) (Q9GT24 338-564): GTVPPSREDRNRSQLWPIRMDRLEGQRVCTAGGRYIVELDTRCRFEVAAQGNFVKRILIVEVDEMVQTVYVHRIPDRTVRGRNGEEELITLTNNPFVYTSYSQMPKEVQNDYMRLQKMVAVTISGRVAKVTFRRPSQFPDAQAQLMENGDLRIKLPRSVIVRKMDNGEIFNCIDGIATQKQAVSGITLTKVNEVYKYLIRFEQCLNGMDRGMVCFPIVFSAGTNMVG

Sequence of Drosophila Plk4 cryptic polo box (DmPlk4 CPB), aa 383-601 (Drosophila) (O97143 383-601): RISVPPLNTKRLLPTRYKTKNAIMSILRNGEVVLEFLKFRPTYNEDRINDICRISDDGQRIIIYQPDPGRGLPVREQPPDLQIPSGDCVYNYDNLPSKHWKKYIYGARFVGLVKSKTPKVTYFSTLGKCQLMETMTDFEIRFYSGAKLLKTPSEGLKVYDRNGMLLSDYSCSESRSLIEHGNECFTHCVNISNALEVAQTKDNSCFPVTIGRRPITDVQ

MmAsl acidic region (MmAsl AR), MST ligand (from UniProt A2AUM9 1-1736) (domain or fragment)
Kd [1]: 720 nM

MmSPD-2 acidic region (MmSPD-2 AR), MST ligand (from UniProt E9Q4Y4 1-2514) (domain or fragment)
Kd [1]: 530 nM
Kd [2]: 5170 nM
